Measurements from article PMC8565327, “A dominant-negative SOX18 mutant disrupts multiple regulatory layers essential to transcription factor activity” (Nucleic Acids Research, 2021).

B1: HALO-SOX18 (protein)
chain: MQRSPPGYGAQDDPPSRRDCAWAPGIGAAAEARGLPVTNVSPTSPASPSSLPRSPPRSPESGRYGFGRGERQTADELRIRRPMNAFMVWAKDERKRLAQQNPDLHNAVLSKMLGKAWKELNTAEKRPFVEEAERLRVQHLRDHPNYKYRPRRKKQARKVRRLEPGLLLPGLVQPSAPPEAFAAASGSARSFRELPTLGAEFDGLGLPTPERSPLDGLEPGEASFFPPPLAPEDCALRAFRAPYAPELARDPSFCYGAPLAEALRTAPPAAPLAGLYYGTLGTPGPFPNPLSPPPESPSLEGTEQLEPTADLWADVDLTEFDQYLNCSRTRPDATTLPYHVALAKLGPRAMSCPEESSLISALSDASSAVYYSACISG
B2: HALO-SOX18 (natural protein, UniProt P43680 1-377, looked up)
chain: B1 chain
modifications: JF549 and/or JF646 Halo-tag dye on the HaloTag
notes: SOX18 wild type from the plasmid pReceiver-M49(HaloTag-SOX18) of GeneCopoeia; In the functional row with MEF2C the protein was untagged-SOX18 from the same plasmid without the HaloTag; also called HaloTag-SOX18; pReceiver-M49(HaloTag-SOX18); source: HeLa, transiently transfected, in living cells

Assays:
SOX7-eGFP, Q9BT81 = target: T1, SOX7-eGFP, Q9BT81; assay: cross-raster image correlation spectroscopy (cRICS); living HeLa cell nuclei, 37°C, transiently transfected; two colours (JF549 + JF646 on HaloTag, eGFP + JF646, or snap646 + JF549); fraction of molecules that move together; settings: other: cross-raster image correlation spectroscopy (cRICS)
T1 chain: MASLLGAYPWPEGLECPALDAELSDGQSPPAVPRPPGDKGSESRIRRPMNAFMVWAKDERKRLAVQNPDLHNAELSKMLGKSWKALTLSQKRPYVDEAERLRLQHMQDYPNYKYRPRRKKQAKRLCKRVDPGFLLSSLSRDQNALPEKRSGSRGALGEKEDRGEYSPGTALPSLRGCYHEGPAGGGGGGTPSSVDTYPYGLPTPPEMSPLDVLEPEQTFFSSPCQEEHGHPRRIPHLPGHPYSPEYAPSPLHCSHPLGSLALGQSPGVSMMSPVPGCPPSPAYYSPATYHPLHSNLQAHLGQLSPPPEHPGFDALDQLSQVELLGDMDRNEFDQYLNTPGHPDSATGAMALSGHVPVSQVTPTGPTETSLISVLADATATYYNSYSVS

[1] = target: the molecule itself; assay: number and brightness (N&B); living HeLa cell nuclei, 37°C; cells with low to medium expression, 1 μM JF549 Halo-tag dye; monomer brightness calibrated on HALO-SOX7

| Protein | percent heterodimer (SOX7-eGFP, Q9BT81) | stoichiometry N [1] |
| --- | --- | --- |
| B1 | SOX7/SOX18 (18.5%) | – |
| B2 | – | 2 |
